The record followed here is patent US20150344570A1 (published 2015).

The target of assay [1] is T1, FcgRIIIa F (human, UniProt P08637 17-208).
T1 construct: extracellular domain; also called FcγRIIIa F; FcγRIIIaF
Kind of assay: SPR (Biacore); KD of GpH7-Kn033/GpH7-Hl033/GpL16-k0 for this FcγR divided by KD of this antibody (reference itself). A general note: In SPR one partner is held on a chip, and binding of the other changes the refractive index at the surface.

The target of assay [2] is T2, FcgRIIa H (human, UniProt P12318 34-217).
T2 construct: extracellular domain; also called FcγRIIa H; FcγRIIa type H
T2 sequence (looked up): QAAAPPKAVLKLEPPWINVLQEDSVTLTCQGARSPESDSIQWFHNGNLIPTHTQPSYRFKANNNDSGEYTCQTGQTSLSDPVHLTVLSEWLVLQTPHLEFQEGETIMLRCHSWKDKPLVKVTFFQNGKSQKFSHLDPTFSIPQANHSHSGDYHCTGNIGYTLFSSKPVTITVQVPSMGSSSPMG
The assay is described as above.

In assay [3] the target is T3, FcgRIIa R (human, UniProt P12318 34-217).
T3 construct: extracellular domain; also called FcγRIIa R; FcγRIIa type R
T3 sequence (looked up): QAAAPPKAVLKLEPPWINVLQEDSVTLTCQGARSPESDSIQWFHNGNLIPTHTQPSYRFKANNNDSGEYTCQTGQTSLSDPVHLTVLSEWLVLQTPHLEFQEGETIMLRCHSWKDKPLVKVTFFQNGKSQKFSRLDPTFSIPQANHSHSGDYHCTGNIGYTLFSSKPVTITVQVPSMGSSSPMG
Described as above.

Assay [4] addresses T4, FcgRIIb (human, UniProt P31994 43-217).
T4 construct: extracellular domain; also called FcγRIIb; CD32B
T4 sequence (looked up): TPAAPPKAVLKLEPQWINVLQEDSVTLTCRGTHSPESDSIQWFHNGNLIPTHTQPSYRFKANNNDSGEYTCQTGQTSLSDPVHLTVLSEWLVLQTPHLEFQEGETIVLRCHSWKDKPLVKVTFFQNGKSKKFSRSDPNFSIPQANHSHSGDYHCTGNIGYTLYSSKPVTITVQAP
The description is as above.

The target of assay [5] is T5, FcgRIIIa V (human, UniProt P08637 17-208).
T5 construct: extracellular domain; also called FcγRIIIa V; FcγRIIIaV
The description is as above.

Assay [6] addresses T6, FcgRIa (human, UniProt P12314 16-292).
T6 construct: extracellular domain; also called FcγRIa; FcγRI
The assay is described as above.

For assay [7], the target named is FcγRIIIa V (human, UniProt P08637 17-208). Kind of assay: SPR (Biacore), KD; the variant that showed the most enhancement.
In assay [8] the target is FcγRIIa R (human, UniProt P12318 34-217). Kind of assay: SPR (Biacore), KD; showed the most enhancement.
Assay [9] addresses FcγRIIa H (human, UniProt P12318 34-217). Kind of assay: SPR (Biacore), KD; showed the most enhancement.

T6 sequence (P12314 16-292): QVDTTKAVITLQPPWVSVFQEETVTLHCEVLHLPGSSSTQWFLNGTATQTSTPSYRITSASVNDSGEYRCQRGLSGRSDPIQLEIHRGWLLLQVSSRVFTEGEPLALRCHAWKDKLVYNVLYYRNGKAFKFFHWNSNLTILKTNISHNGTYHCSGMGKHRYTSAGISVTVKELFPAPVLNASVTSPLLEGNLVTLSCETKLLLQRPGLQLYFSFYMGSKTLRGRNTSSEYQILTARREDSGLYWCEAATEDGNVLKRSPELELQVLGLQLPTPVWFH
T5 sequence (P08637 17-208 F176V limits assumed): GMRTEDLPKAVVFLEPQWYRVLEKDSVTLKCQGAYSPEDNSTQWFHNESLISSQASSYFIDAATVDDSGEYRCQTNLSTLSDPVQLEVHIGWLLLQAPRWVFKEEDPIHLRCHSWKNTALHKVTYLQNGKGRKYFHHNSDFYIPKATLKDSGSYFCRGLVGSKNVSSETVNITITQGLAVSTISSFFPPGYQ
FcγRIIIa V, sequence (P08637 17-208): as the sequence (P08637 17-208 F176V limits assumed) above, with V160F counted along it
T1 sequence (P08637 17-208): as the sequence (P08637 17-208 F176V limits assumed) above, with V160F counted along it

B1: GpH7-Kn033/GpH7-Hl033/GpL16-k0 (antibody, human IgG1, kappa)
heavy 1: not shown
heavy 2: not shown
light: DIVMTQSPLSLPVTPGEPASISCQASESLVHSNRNTYLHWYLQKPGQSPQLLIYKVSNRFSGVPDRFSGSGSGTDFTLKISRVEAEDVGVYYCSQNTHVPPTFGQGTKVEIERTVAAPSVFIFPPSDEQLKSGTASVVCLLNNFYPREAKVQWKVDNALQSGNSQESVTEQDSKDSTYSLSSTLTLSKADYEKHKVYACEVTHQGLSSPVTKSFNRGEC
notes: Anti-glypican-3 antibody; knobs-into-holes alone applied to G1d (knob chain Y349C/T366W; hole chain D356C/T366S/L368A/Y407V); also called Kn033/Hl033
In the case of B1, the KD ratio in assay [1], in [2], in assay [3], in [4], in assay [5] and in assay [6] was 1 fold each time.

B2: H240-Kn203/H240-Hl210/L73-k0 (antibody, human IgG1, kappa)
heavy 1: QDQLVQSGAEVKKPGASVKVSCKASGFNIKDTYIQWVRQAPGQGLEWMGRIDPLRKQTKYREKFEGRVTITADTSTNTAYMELSSLRSEDTAVYYCVRSGREFDYWGQGTLVTVSSASTKGPSVFPLAPSSKSTSGGTAALGCLVKDYFPEPVTVSWNSGALTSGVHTFPAVLQSSGLYSLSSVVTVPSSSLGTQTYICNVNHKPSNTKVDKKVEPKSCDKTHTCPPCPAPEFYWGPMVFLFPPKPKDTLMISRTPEVTCVVVDVSDEDPEVKFNWYVDGVEVHNAKTKPREEQYNATYRVVSVLTVLHQDWLNGKEYKCKVSNKDLPAPIEKTISKAKGQPREPQVCTLPPSRDELTKNQVSLWCLVKGFYPSDIAVEWESNGQPENNYKTTPPVLDSDGSFFLYSKLTVDKSRWQQGNVFSCSVMHEALHNHYTQKSLSLSP
heavy 2: QDQLVQSGAEVKKPGASVKVSCKASGFNIKDTYIQWVRQAPGQGLEWMGRIDPLRKQTKYREKFEGRVTITADTSTNTAYMELSSLRSEDTAVYYCVRSGREFDYWGQGTLVTVSSASTKGPSVFPLAPSSKSTSGGTAALGCLVKDYFPEPVTVSWNSGALTSGVHTFPAVLQSSGLYSLSSVVTVPSSSLGTQTYICNVNHKPSNTKVDKKVEPKSCDKTHTCPPCPAPELLGGPSVFLFPPKPKDTLMISRTPEVTCVVVDVSHEEPEVKFNWYVDGVEVHNAKTKPREEQYNSTYRVVSVLTVLHQDWLNGKEYKCKVSNDALPAPIEETISKAKGQPREPQVYTLPPSRCELTKNQVSLSCAVKGFYPSDIAVEWESNGQPENNYKTTPPVLDSDGSFFLVSKLTVDKSRWQQGNVFSCSVMHEALHNHYTQKSLSLSP
light: DIQMTQSPSSLSASVGDRVTITCRASQDIHKYIAWYQQKPGQAPRLLIQYTSTLQPGVPSRFSGSGSGTDYTFTISSLQPEDIATYYCLQYEQLRTFGGGTKVEIKRTVAAPSVFIFPPSDEQLKSGTASVVCLLNNFYPREAKVQWKVDNALQSGNSQESVTEQDSKDSTYSLSSTLTLSKADYEKHKVYACEVTHQGLSSPVTKSFNRGEC
notes: 330 A in H240-Hl076
B2: in assay [7], the “fold binding activity against H240-Kn033/H240-Hl033/L73-k0” value amounted to 107 fold.

B3: H240-Kn231/H240-Hl068/L73-k0 (antibody, human IgG1, kappa)
heavy 1: QDQLVQSGAEVKKPGASVKVSCKASGFNIKDTYIQWVRQAPGQGLEWMGRIDPLRKQTKYREKFEGRVTITADTSTNTAYMELSSLRSEDTAVYYCVRSGREFDYWGQGTLVTVSSASTKGPSVFPLAPSSKSTSGGTAALGCLVKDYFPEPVTVSWNSGALTSGVHTFPAVLQSSGLYSLSSVVTVPSSSLGTQTYICNVNHKPSNTKVDKKVEPKSCDKTHTCPPCPAPEIYWGPIVFLFPPKPKDTLMISRTPEVTCVVVDVSDEDPEVKFNWYVDGVEVHNAKTKPREEQYNATYRVVSVLTVLHQDWLNGKEYKCKVSNKDLPAPIEKTISKAKGQPREPQVCTLPPSRDELTKNQVSLWCLVKGFYPSDIAVEWESNGQPENNYKTTPPVLDSDGSFFLYSKLTVDKSRWQQGNVFSCSVMHEALHNHYTQKSLSLSP
heavy 2: QDQLVQSGAEVKKPGASVKVSCKASGFNIKDTYIQWVRQAPGQGLEWMGRIDPLRKQTKYREKFEGRVTITADTSTNTAYMELSSLRSEDTAVYYCVRSGREFDYWGQGTLVTVSSASTKGPSVFPLAPSSKSTSGGTAALGCLVKDYFPEPVTVSWNSGALTSGVHTFPAVLQSSGLYSLSSVVTVPSSSLGTQTYICNVNHKPSNTKVDKKVEPKSCDKTHTCPPCPAPELLGGPSVFLFPPKPKDTLMISRTPEVTCVVVDVSHEEPEVKFNWYVDGVEVHNAKTKPREEQYNSTYRVVSVLTVLHQDWLNGKEYKCKVSNDALPKPIEETISKAKGQPREPQVYTLPPSRCELTKNQVSLSCAVKGFYPSDIAVEWESNGQPENNYKTTPPVLDSDGSFFLVSKLTVDKSRWQQGNVFSCSVMHEALHNHYTQKSLSLSP
light: DIQMTQSPSSLSASVGDRVTITCRASQDIHKYIAWYQQKPGQAPRLLIQYTSTLQPGVPSRFSGSGSGTDYTFTISSLQPEDIATYYCLQYEQLRTFGGGTKVEIKRTVAAPSVFIFPPSDEQLKSGTASVVCLLNNFYPREAKVQWKVDNALQSGNSQESVTEQDSKDSTYSLSSTLTLSKADYEKHKVYACEVTHQGLSSPVTKSFNRGEC
For the molecule B3, the results for the “fold binding activity against H240-Kn033/H240-Hl033/L73-k0” value in assay [8] and in assay [9] were 83 fold and 33 fold, respectively.
